Measured values as given in the supplement of paper PMC10201428.
± gives the standard deviation of the averaged measurements.

Assays:
[1] = test system: VchCAST RNA-guided transposition machinery (E. coli BL21(DE3) host, lacZ target); assay: relative integration efficiency (T-LR orientation) vs wild-type transposon end (log2 (normalized fold change)); transposon end mutated: left end; higher = more efficient transposition
Procedure, shortened: (§1)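 Barcoded pools of 1549 left-end or 1849 right-end transposon variants were cloned into a pUC57 mini-transposon donor. Each pool was co-transformed with a T7-driven effector plasmid (CRISPR array, tniQ-cas8-cas7-cas6, tnsA-tnsB-tnsC) into E. coli BL21(DE3) and plated with 0.1 mM IPTG at 37°C for 18 h. Input plasmids and genomic integration junctions were PCR-amplified and Illumina-sequenced, with two biological output replicates and four wild-type barcodes as reference. Relative integration efficiency is output/input barcode abundance fold change, normalised to wild-type barcodes and log-transformed.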

[2] = test system: VchCAST RNA-guided transposition machinery (E. coli BL21(DE3) host, lacZ target); assay: relative integration efficiency (T-RL orientation) vs wild-type transposon end (log2 (normalized fold change)); transposon end mutated: left end; higher = more efficient transposition
Procedure, shortened: as §1

Sequence | relative integration efficiency (log2) [1] | relative integration efficiency (log2) [2]
AATGTTGTTGATGCAACCATAAGTTGATATTTTATAATTATTTATAATCAGCAACTTAACCACAAAACAACCATAAAATGATAATTAACAAAAGTTGGTATTCAACTATAAAATGTGAATCGAGTATTTCAGCAAAACTACTGCAGTAAGAA | -0.577 ± 0.68 | -2.57 ± 1.1
AATGTTGTTGATGCACCCATAAATTGATAATTAATAATTATTTATAATCAGCAACTTAACCACAAAACACCCATAAATTGATAATTAACAAAAGTTGGTATTCAACTATAAAATGTGAATCGAGTATTTCAGCAAAACTACTGCAGTAAGAA | -1.11 ± 1.5 | -2.87 ± 0.73
AATGTTGTTGATGCAACCATATATTGATATCTCATAATTATTTATAATCAGCAACTTAACCACAAAACAACCATAAAATGATAATTAACAAAAGTTGGTATTCAACTATAAAATGTGAATCGAGTATTTCAGCAAAACTACTGCAGTAAGAA | -1.34 ± 1 | -3.2 ± 1.5
AATGTTGTTGATGCAACCATAAAGTGATATTTAATAATTATTTATAATCAGCAACTGCCAACACCCCACCAACGCGCGGTCGCGAGACACCCCACCAACGCCTGGTCGCGGGGGTGTCCGATCTGATTTCAGCAAAACTACTGCAGTAAGAA | -3.03 ± 0.58 | -6.35 ± 0.99
AATGTTGTTGATGCAACCATAAAGTGATATATAATTATTTATAATCAGCAACTTAACCACAAAACAACCATATATTGATATCTCACAAAACAACCATAAGTTGATATTTTTGTGAATCGAGTATTTCAGCAAAACTACTGCAGTAAGAAAGT | -4.68 ± 0.68 | -7.3 ± 1.5
AATGTTGTTGATGCAACCATAAAGTGATATTTAATAATTATTTATAATCAGCAACTTACAACCATATATTGATATCTCACCACAAAAACAAAACAACCATAAGTTGATATTTTTGTGAATCGAGTATTTCAGCAAAACTACTGCAGTAAGAA | 0.226 ± 1.1 | -0.417 ± 0.35
AATGTTGTTGATGCAACCATAAAGTGATATTTAATAATTATTTATAATCAGCAACTTAACCACAAAACAACCATAGCGGTCGCGAGACACCCCACCAACGCCTGGTCGCGGGGGTGTCCGATCTGATTTCAGCAAAACTACTGCAGTAAGAA | -4.33 ± 1.8 | -6.21 ± 1.6
AATGTTGTTGATGCAACCATAAAGTGATATTTAATAATTGGCAGTGAGCGCAACGCAATTCACAAAACAACCATATATTGATATCTCACAAAACAACCATAAGTTGATATTTTTGTGAATCGAGTATTTCAGCAAAACTACTGCAGTAAGAA | -3.88 ± 2.9 | -2.76 ± 1
TTTTGTGTTGAAACAACCATAAAGTGATAACAACGAATCAATTAAAATCATAGGCTTAATCGAAAAACAACCATATCTTGATATCGCATAAAACAACCATAAGTTGATATTTTGGTGAAACGAGTATTTCAGCAAAACTACTGCAGTAAGAA | -1.04 ± 0.28 | -0.949 ± 0.35
AATGTTGTTGATGCAACCATAAAGTGATATTTAATAATTATTTATAATCAGCAACTTAACCACAAAACAACCATATATTGATATCTCACAAAACAACCATAAGGGTCGCGGGGGTGTCCGATCTGATTTCAGCAAAACTACTGCAGTAAGAA | -1.56 ± 1 | -1.87 ± 0.93
AATGTTGTTGATGCAACCATAAAGTGATATTTAATAATTATTCAACCATATATTGATATCTCACAAAACAACCATAAGTTGATATTTTTATAATCAGCAACTTAACCACAAAATGTGAATCGAGTATTTCAGCAAAACTACTGCAGTAAGAA | < -10 | -6.852 ± 0.014
AATGTTGTTGATGCAACCATAAAGTGATATTTAATAATTATTTATACAACCATATATTGATATCTCATCAGCAACTTAACCACAAAAACAAAACAACCATAAGTTGATATTTTTGTGAATCGAGTATTTCAGCAAAACTACTGCAGTAAGAA | -1.08 ± 0.46 | -4.35 ± 0.47
AATGTTGTTGATGCAACCATAAAGTGATATTTACTTAAGCGAGTCTGTCCTTTCTGACTGTCGATCCCAACCATATATTGATATCTCACAAAACAACCATAAGTTGATATTTTTGTGAATCGAGTATTTCAGCAAAACTACTGCAGTAAGAA | -3.45 ± 1.6 | -3.4 ± 1.1
AATGTTGTTGATGTCAACCATAAAGTGATATTTAATAATTATTTATAATCAGCAACTTAACCACAAAACAACCATATATTGATATCTCACAAAACAACCATAAGTTGATATTTTTGTGAATCGAGTATTTCAGCAAAACTACTGCAGTAAGA | -0.718 ± 0.039 | -0.694 ± 0.2
AATGTTGTTGATGCAACCATAAAGTGATATTTAATAATTATTTATAATCAGCAACTTAACCACAAAACACCCATAAATTGATAATTAACAAAAGTTGGTATTCAACTATAAAATGTGAATCGAGTATTTCAGCAAAACTACTGCAGTAAGAA | -1.11 ± 0.65 | -2.72 ± 0.87
AATGTTGTTGATGCAACCATAAAGTGATATTTAATAATTATTTATAATCAGCAACTTAACCACAAAACAACCATATATTGATATCTCACAAAACAACCATAAGTTGAGCGGGGGTGTCCGATCTGATTTCAGCAAAACTACTGCAGTAAGAA | -1.81 ± 0.51 | -1.32 ± 0.58

Sequence | relative integration efficiency (log2) [1] | relative integration efficiency (log2) [2]
AATGTTGTTGATGCAACCATATATTGATATCTCATAATTATTTATAATCAGCAACTTAACCACAAAACACCCATAAATTGATAATTAACAAAAGTTGGTATTCAACTATAAAATGTGAATCGAGTATTTCAGCAAAACTACTGCAGTAAGAA | -1.08 ± 1.5 | -3.56 ± 1.4
AATGTTGTTGATACAACCATAAAGTGATATTTACAACCATATATTGATATCTCTCACAACCATAAGTTGATATTTTTGTGAATCGAGTATTTCAGCAAAACTACTGCAGTAAGAAAGTTACTTCGTGGTATGGGAGGATCAAGGAGCCAATA | 2.35 ± 0.84 | -3.51 ± 1
AATGTTGTTGATGCAACCATAAAGTGATATTTACACGAAGTGGCAACTGCCGTGCTGGCGTGCGATGCAACCATATATTGATATCTCACAAAACAACCATAAGTTGATATTTTTGTGAATCGAGTATTTCAGCAAAACTACTGCAGTAAGAA | 0.496 ± 0.1 | -2.73 ± 0.84
AATGTTGTTGATGCAACCATAAAGTGATATTTACAACCATATATTGATATCTCACAAAACAACCATAAGTTGATATTTTTGTGAATCGAGTATTTCAGCAAAACTACTGCAGTAAGAAAGTTACTTCGTGGTATGGGAGGATCAAGGAGCCA | 0.662 ± 0.89 | -2.61 ± 1.1
AATGTTGTTGATGCAACCATAAAGTGATATTTAATAATTATTTATAATCAGCAACTTAACCACAAACAACCATATATTGATATCTCAACAAAACAACCATAAGTTGATATTTTTGTGAATCGAGTATTTCAGCAAAACTACTGCAGTAAGAA | -1.17 ± 1.5 | -1.37 ± 0.49
AATGTTGTTGATGCAACCATAAAGTGATATTTAATAATTATTTATAACAACCATATATTGATATCTCTCAGCAACTTAACCACAAAAACAAAACAACCATAAGTTGATATTTTTGTGAATCGAGTATTTCAGCAAAACTACTGCAGTAAGAA | -2.66 ± 1.4 | -4.46 ± 0.052
AATGTTGTTGATGCAACCATAAAGTGATATTTACGAATCAATTAAAATCATAGGCTTAATCGAAAAACAACCATATATTGATATCTCATAAAACAACCATAAGTTGATATTTTGGTGAAAAGGATATTCCAACCTTCATAGTTTAGTAAGAA | 0.612 ± 0.84 | 0.639 ± 0.032
AATGTTGTTGATGCAACCATAAAGTGATATTTAATAATTATTTATAATCAGCAACTTAACCACAAAACAACCATATATTGATATCTCACAAAACACAACGCCTGGTCGCGGGGGTGTCCGATCTGATTTCAGCAAAACTACTGCAGTAAGAA | -0.789 ± 1.1 | -2.63 ± 1.3
AATGTTGTTGATGCAACCATAAAGTGATATTTAACAACCATATATTGATATCTCACAAAACAACCATAAGTTGATATTTTTAATTATTTATAATCAGCAACTTAACCACAAAATGTGAATCGAGTATTTCAGCAAAACTACTGCAGTAAGAA | -0.212 ± 1.1 | -1.58 ± 0.69
AATGTTGTTGATGCAACCATAAAGTGATATTTAATAATTATTTATAATCAGCAACTTAACAACCATATATTGATATCTCACAAAACAACCATAAGTTGATATTTTTGTGAATCGAGTATTTCAGCAAAACTACTGCAGTAAGAAAGTTACTT | -4.07 ± 1.9 | -3.63 ± 1.3
AATGTTGTTGATGCAACCATAAAGTGATATTTAATAATTATTTATAATCAGCAACTTAACCACAAAAACCAACGCGCGGTCGCGAGAACAAAAACCAACGCCCTGTCGCGGGCTGTGAATCGAGTATTTCAGCAAAACTACTGCAGTAAGAA | -4.56 ± 2.1 | -6.97 ± 1.6
AATGTTGTTGATGCAACCATAAAGTGATATTTACAACCATAAAGTGATATTTAACTTAACCACAAAACAACCATATATTGATATCTCACAAAACAACCATAAGTTGATATTTTTGTGAATCGAGTATTTCAGCAAAACTACTGCAGTAAGAA | 1.11 ± 0.91 | -3.13 ± 0.76
AATGTTGTTGATGCAACCATAAAGTGATATTTAATACAACCATATATTGATATCTCATTATTTATAATCAGCAACTTAACCACAAAAACAAAACAACCATAAGTTGATATTTTTGTGAATCGAGTATTTCAGCAAAACTACTGCAGTAAGAA | -3.41 ± 3.5 | -4.61 ± 1.8
AATGTTGTTGATGCAACCATAAAGTGATATTTACAACCATATATTGATATCTCACAAACAACCATAAGTTGATATTTTTGTGAATCGAGTATTTCAGCAAAACTACTGCAGTAAGAAAGTTACTTCGTGGTATGGGAGGATCAAGGAGCCAA | 2.04 ± 0.88 | -2 ± 0.74
AATGTTGTTGATGCAACCATAAAATGATAATTAATAATTATTTATAATCAGCAACTTAACCACAAAACAACCATAAAGTGATATTTAACAAAAGTTGGTATTCAACTATAAAATGTGAATCGAGTATTTCAGCAAAACTACTGCAGTAAGAA | -0.635 ± 1 | -2.33 ± 0.95
